Results on 1 molecule are retold here after article PMC2667502 (2009).

The target of this assay is TrkB/P75NTR complex (Mus musculus, UniProt P15209). The assay can be described thus: dose-response of neuronal survival in ventral midbrain cultures.
Sequence of TrkB/P75NTR complex (P15209 32-821, chain 1 of 2): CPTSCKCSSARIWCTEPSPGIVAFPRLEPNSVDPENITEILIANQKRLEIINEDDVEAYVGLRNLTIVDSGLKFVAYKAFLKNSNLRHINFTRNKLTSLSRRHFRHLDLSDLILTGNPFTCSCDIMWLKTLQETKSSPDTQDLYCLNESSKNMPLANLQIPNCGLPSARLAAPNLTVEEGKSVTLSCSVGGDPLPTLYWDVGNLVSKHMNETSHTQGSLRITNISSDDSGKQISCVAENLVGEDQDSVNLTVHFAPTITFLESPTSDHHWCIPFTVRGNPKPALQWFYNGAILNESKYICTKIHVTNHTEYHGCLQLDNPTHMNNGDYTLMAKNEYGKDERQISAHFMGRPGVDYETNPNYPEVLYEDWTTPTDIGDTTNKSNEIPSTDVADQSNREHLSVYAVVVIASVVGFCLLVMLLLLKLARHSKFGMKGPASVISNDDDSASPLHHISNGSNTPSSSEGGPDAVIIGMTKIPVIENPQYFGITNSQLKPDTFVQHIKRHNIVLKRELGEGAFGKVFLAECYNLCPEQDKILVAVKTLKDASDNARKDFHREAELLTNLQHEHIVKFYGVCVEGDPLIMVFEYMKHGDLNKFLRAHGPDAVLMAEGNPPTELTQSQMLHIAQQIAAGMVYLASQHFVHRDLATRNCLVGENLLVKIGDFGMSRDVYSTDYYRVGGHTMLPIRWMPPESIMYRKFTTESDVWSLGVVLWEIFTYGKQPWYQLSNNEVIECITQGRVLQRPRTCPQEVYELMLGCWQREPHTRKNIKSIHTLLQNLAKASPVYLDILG
Sequence of TrkB/P75NTR complex (chain, as listed by the source, chain 2 of 2): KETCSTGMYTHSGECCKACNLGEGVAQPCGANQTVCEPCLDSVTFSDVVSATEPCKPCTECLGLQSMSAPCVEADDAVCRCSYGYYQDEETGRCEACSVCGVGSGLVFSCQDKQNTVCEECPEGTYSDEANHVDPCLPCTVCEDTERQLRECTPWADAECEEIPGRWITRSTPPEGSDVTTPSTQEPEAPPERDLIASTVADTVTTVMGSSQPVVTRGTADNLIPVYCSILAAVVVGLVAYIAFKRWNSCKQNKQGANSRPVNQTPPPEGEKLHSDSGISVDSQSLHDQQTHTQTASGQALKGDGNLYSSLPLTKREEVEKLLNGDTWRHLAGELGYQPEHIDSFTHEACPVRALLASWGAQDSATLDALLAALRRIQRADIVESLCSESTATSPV

B1: BDNF (protein)
chain: HSDPARRGELSVCDSISEWVTAADKKTAVDMSGGTVTVLEKVPVSKGQLKQYFYETKCNPMGYTKEGCRGIDKRHWNSQCRTTQSYVRALTMDSKKRIGWRFIRIDTSCVCTLTIKRGR
The term Kd denotes the equilibrium constant for the complex coming apart. B1: the Kd is approximately 2.5 nM.
